Measurements taken from patent publication US20030004092A1.

Biological target: Myc expressed from a co-transfected Myc expressing plasmid (pSpMyc)
Assay: cell-based or functional assay

## cdr2 expressed from a co-transfected cdr2 expressing plasmid
  Myc-dependent transcriptional activity (pM4luc luciferase reporter, NIH-3T3 cells): 4 fold
